Laboratory results from PMC5095173, “Disulfide-activated protein kinase G Iα regulates cardiac diastolic relaxation and fine-tunes the Frank–Starling response” (Nature Communications, 2016).

Tests used:
[1] = test system: PKGIα (analogue-sensitive C42S/M438G), cGMP-activated; test: Chemical genetic phosphoproteomic screen, cGMP-activated PKGIα C42S/M438G versus unactivated control; assay type: biochemical, human PKGIα; substrates in rat heart homogenate; details: control = PKGIα C42S/M438G
In short: (§1)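 Analogue-sensitive human PKGIα mutants (M438G, air-oxidized to disulfide dimer; C42S/M438G, cGMP-activated), expressed in 293-F cells, thiophosphorylate substrates in rat left-ventricle lysate (20 mg ml) using N6-alkylated ATPγS. Thiophosphopeptides are recovered by covalent capture and identified with sites by LC–MS/MS, each compared against an unactivated control.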

[2] = test system: PKGIα (analogue-sensitive M438G), disulfide-activated; test: Chemical genetic phosphoproteomic screen, disulfide-activated PKGIα M438G versus unactivated control; assay type: biochemical, human PKGIα; substrates in rat heart homogenate; details: control = PKGIα C42S/M438G
In short: as §1

Molecule	log2 fold change cGMP vs Control [1]	log2 fold change Disulfide vs Control [2]
Hmga1 pS36 (protein, UniProt P17095 2-107, looked up, phosphorylated S36) High mobility group protein …: SESGSKSSQPLASKQEKDGTEKRGRGRPRKQPPVSPGTALVGSQKEPSEVPTPKRPRGRPKGSKNKGAAKTRKVTTAPGRKPRGRPKKLEKEEEEGISQESSEEEQ	4.39	1.6764
Jph2 pS240 (protein, UniProt Q2PS20 1-692, looked up, phosphorylated at S240) Junctophilin-2: MSGGRFDFDDGGAYCGGWEGGKAHGHGLCTGPKGQGEYSGSWNFGFEVAGVYTWPSGNTFEGYWSQGKRHGLGIETKGRWLYKGEWTHGFKGRYGIRQSTNSGAKYEGTWNNGLQDGYGTETYADGGTYQGQFTNGMRHGYGVRQSVPYGMAVVVRSPLRTSLSSLRSEHSNGTVAPDSPAADGPTLPLPPVPRGGFALSLLATAEAARPPGLFTRGALLGRLRRSESRTSLGSQRSRLSFLKSELSSGASDAASTGSLAEGAEGPDDAAAPFDADIDATTTETYMGEWKNDKRSGFGVSERSSGLRYEGEWLDNLRHGYGRTTLPDGHREEGKYRHNVLVKGTKRRVLPLKSNKVRQKVEHGVEGAQRAAAIARQKAEIAASRTSHAKAKAEAAEQAALAANQESNIARTLAKELAPDFYQPGPEYQKRRLLQEILENSESLLEPRERGPGTGLPERPRESPQLHERETPQPEGGPPSPAGTPPQPKRPRPGSSKDGLLSPGAWNGEPGGEGSRPATPSDGAGRRSPARPASEHMAIEALQPPPAPSREPEVALYRGYHSYAVRTGPPEPPPLEDEPEPEPEVPRSDSEPPSPVSATVQEEESPAPRSRVPAKPATLEPKPIVPKAEPKAKARKTEARGLSKAGAKKKGRKEVAQEAEAEVEVEEVPNTVLICMVILLNIGLAILFVHLLT	0.1615	0.2694
Lrpprc pS656 (protein, UniProt Q5SGE0 78-1392, looked up, phosphorylated at S656) Leucine-rich PPR …: SGSQFDWALMRLDNSVRRTGRITKGLLQKVFESTCRSGSPGSNQALLLLRSCGSLLPELSLAERTEFAHKIWDKLQQLGTVYDVSHYNALLKVYLQNEYRFSPTDFLAKMEGANIQPNRVTYQRLIAAYCSVGDIEGASKILGFMKTRDLPITEAVFSALVTGHARAGDMESAENILTVMKQAGIEPGPDTYLALLNAHAEKGDIDHVKQILEKVEKSDHYFMDRDFLQIIVSFSKAGYPQYVSEILEKITYERRSIPDAMNLILLLVTEKLEDTAFQVLLALPLARDETSSSFGSFFLRHCVTMDTPAEKLIDYCKRLRDAKVHSSSLQFTLHCALQANKTALAKAVMEALRDEGFPIRTHYFWPLLVGHQKTKNVQGIIDILKIMKEMGVDPDQETYINYVFPCFGSVQSARAALQENKCLPKSTTFAQAEVRNEAINGNLQNILSFLESNALPFSFNSLRGSLILGFRRSMNIDLWSKITELLYKDDRYCQKPPGPTEAVGYFLYNLIDSMSDSEVQAKEERLRQYFHQLREMNVKVSENIYKGICNLLDNYHVPELIKDVKVLVDREKIDSRKTSQFTSSDLESTLEKLKAEGHPVGDPLKQLILLLCSEENMQKALEVKAKYESDMVIGGYAALINLCCRHDNAEDALNLKQEFDRLDPSAVLDTAKYVALVKVLGKHGRVQDAINILKEMKEKDVVIKDAAVLSFFHILNGAALRGEIETVKQLHEAIVTLGLAKPSSNISFPLVTVHLEKDDLPAALEASIACHEKYKVLPRIHDVLCKLIEKGETDLIQKAMDFVSQEQGEMSMLYDLFFAFLQTGNYKEAKKIIETPGIRARPTRLQWFCDRCIANNQVETLEKLVELTEKLFECDRDQMYYNLLKLYKISGDWQRADAVWNKMQEENLIPRERTLRLLAGILKTSNQEVPFDVPELWFGDDRSSLSSSSPSAGDTVTEKMLLSDCRLKKSKDAYNIFLKAEKQDVVFSSEAYSTLVGLLLSKDDFTRAMHVKDFAETHIKGFTLNGAASSLLIIAQVRRDYLKVALETLKAALDLEQVPSELAVTRLIQALALQGDVKSIETIQKMVKGLDAIELSRMVFINNIALAQMKNNEIDAAIENIEHMLASENQTVEHQYFGLSYLFRKVIEEQMEPALEKLSIMSERLANQFALYKPVTDLFLQLVDSGKVDEARALLERCGAIAEQTSILSVFCLRTSQKPKKAPVLKTLLELIPELRENDRVYSCSMKSYVADKDVASAKALYEHLTAKNMKLDDLFLKRYASLLKDVGEPVPFTEPPESFGFYIKQLKEARENPS	4.57	0.7702
Hspb6 pS16 (protein, UniProt P97541 1-162, looked up, phosphorylated at S16) Heat shock protein beta-6: MEIRVPVQPSWLRRASAPLPGFSTPGRLFDQRFGEGLLEAELASLCPAAIAPYYLRAPSVALPTAQVPTDPGYFSVLLDVKHFSPEEISVKVVGDHVEVHARHEERPDEHGFIAREFHRRYRLPPGVDPAAVTSALSPEGVLSIQATPASAQASLPSPPAAK	2.607	1.245
Matr3 pT150 (protein, UniProt P43244 2-845, looked up, phosphorylated at T150) Matrin-3: SKSFQQSSLGRDSQGHGRDLSAAGIGLLAAATQSLSMPASLGRMNQGTARLASLMNLGMSSSLNQQGAHSALSSASTSSHNLQSIFNIGSRGPLPLSSQHRGDTDQASNILASFGLSARDLDELSRYPEDKITPENLPQILLQLKRRRTEEGPTLSYGRDGRSATREPPYRVPRDDWEEKRHFRRDSFDDRGPSLNPVLDYDHGSRSQESGYYDRMDYEDDRLRDGERCRDDSFFGETSHNYHKFDSEYERMGRGPGPLQERSLFEKKRGAPPSSNIEDFHGLLPKGYPHLCSICDLPVHSNKEWSQHINGASHSRRCQLLLEIYPEWNPDNDTGHTMGDPFMLQQSTNPAPGILGPPPPSFHLGGPAVGPRGNLGAGNGNLQGPRHMQKGRVETSRVVHIMDFQRGKNLRYQLLQLVEPFGVISNHLILNKINEAFIEMATTEDAQAAVDYYTTTPALVFGKPVRVHLSQKYKRIKKPEGKPDEKFDQKQELGRVIHLSNLPHSGYSDSAVLKLAEPYGKIKNYILMRMKSQAFIEMETREDAMAMVDHCLKKALWFQGRCVKVDLSEKYKKLVLRIPNRGIDLLKKDKSRKRSYSPDGKESPSDKKSKTDGAQKTENPAEGKEQEEKSGEDGEKDTKDDQTEQEPSMLLESEDELLVDEEEAAALIESGSSVGDETDLANLGDVSSDGKKEPSDKAVKKDASATSKKKLKKVDKIEELDQENEAALENGIKNEENTEPGAESAENADDPNKDASDNSDGQNDENKEDYTIPDEYRIGPYQPNVPGGIDYVIPKTGFYCKLCSLFYTNEEVAKNTHCSSLPHYQKLKKFLNKLAEERRQKKES	3.582	1.381
Matr3 pS188 (protein, UniProt P43244 2-845, looked up, phosphorylated at S188) Matrin-3: SKSFQQSSLGRDSQGHGRDLSAAGIGLLAAATQSLSMPASLGRMNQGTARLASLMNLGMSSSLNQQGAHSALSSASTSSHNLQSIFNIGSRGPLPLSSQHRGDTDQASNILASFGLSARDLDELSRYPEDKITPENLPQILLQLKRRRTEEGPTLSYGRDGRSATREPPYRVPRDDWEEKRHFRRDSFDDRGPSLNPVLDYDHGSRSQESGYYDRMDYEDDRLRDGERCRDDSFFGETSHNYHKFDSEYERMGRGPGPLQERSLFEKKRGAPPSSNIEDFHGLLPKGYPHLCSICDLPVHSNKEWSQHINGASHSRRCQLLLEIYPEWNPDNDTGHTMGDPFMLQQSTNPAPGILGPPPPSFHLGGPAVGPRGNLGAGNGNLQGPRHMQKGRVETSRVVHIMDFQRGKNLRYQLLQLVEPFGVISNHLILNKINEAFIEMATTEDAQAAVDYYTTTPALVFGKPVRVHLSQKYKRIKKPEGKPDEKFDQKQELGRVIHLSNLPHSGYSDSAVLKLAEPYGKIKNYILMRMKSQAFIEMETREDAMAMVDHCLKKALWFQGRCVKVDLSEKYKKLVLRIPNRGIDLLKKDKSRKRSYSPDGKESPSDKKSKTDGAQKTENPAEGKEQEEKSGEDGEKDTKDDQTEQEPSMLLESEDELLVDEEEAAALIESGSSVGDETDLANLGDVSSDGKKEPSDKAVKKDASATSKKKLKKVDKIEELDQENEAALENGIKNEENTEPGAESAENADDPNKDASDNSDGQNDENKEDYTIPDEYRIGPYQPNVPGGIDYVIPKTGFYCKLCSLFYTNEEVAKNTHCSSLPHYQKLKKFLNKLAEERRQKKES	1.38	-0.9169
